Changes are numbered by the printed parent chain.

Our source for the pKd values is PMC9482650, “Quantitative fragmentomics allow affinity mapping of interactomes” (Nature Communications, 2022).

Some targets named below: SCRIB_1, Q14160; DLG4_2, P78352; PDLIM1, O00151; DLG1_2, Q12959; GRIP2_7, Q9C0E4; GRASP, Q7Z6J2; PARD3_3, Q8TEW0; FRMPD3, Q5JV73; MAGI2_2, Q86UL8; LDB3, O75112.
Experiment in all cases: holdup assay
What all share (design): key: below the threshold = too weak to quantify, mostly under pKd 3.1 to 4
Conditions in all cases: plain residues with an end cap or a label only (N-terminal biotin on a linker: ado-ado)

A further experiment has as its target T1, DFNB31_3, Q9P202.
T1 sequence (Q9P202 811-907, limits assumed, looked up): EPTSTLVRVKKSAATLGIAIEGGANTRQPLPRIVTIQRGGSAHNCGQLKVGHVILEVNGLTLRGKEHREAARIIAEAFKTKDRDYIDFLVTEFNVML

In another experiment the target is T2, LIN7B, Q9HAP6.
T2 sequence (Q9HAP6 88-185, limits assumed, looked up): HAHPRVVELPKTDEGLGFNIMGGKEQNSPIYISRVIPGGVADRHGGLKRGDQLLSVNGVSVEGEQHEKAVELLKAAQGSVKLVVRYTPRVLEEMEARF

The next experiment has as its target T3, APBA1_1, Q02410.
T3 sequence (Q02410 651-752, limits assumed, looked up): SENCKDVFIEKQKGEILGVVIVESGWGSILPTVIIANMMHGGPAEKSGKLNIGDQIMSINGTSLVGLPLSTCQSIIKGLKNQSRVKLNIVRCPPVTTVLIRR

The target of a further experiment is T4, SNTA1, Q13424.
T4 sequence (Q13424 82-180, limits assumed, looked up): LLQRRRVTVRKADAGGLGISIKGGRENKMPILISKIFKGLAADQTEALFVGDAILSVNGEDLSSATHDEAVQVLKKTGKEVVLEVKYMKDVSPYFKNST

The target in the next experiment is T5, LIN7A, O14910.
T5 sequence (O14910 103-200, limits assumed, looked up): T2 sequence (Q9HAP6 88-185, limits assumed, looked up) with A2S, I20V, V35I, D42E, Q65H, Q77K, G78D, R89K

The next experiment addresses T6, GRIP1_4, Q9Y3R0.
T6 sequence (Q9Y3R0 467-571, limits assumed, looked up): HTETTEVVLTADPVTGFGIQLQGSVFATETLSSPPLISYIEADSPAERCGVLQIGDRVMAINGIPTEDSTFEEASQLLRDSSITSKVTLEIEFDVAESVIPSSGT

Another experiment deals with T7, DVL3, Q92997.
T7 sequence (Q92997 244-331, limits assumed, looked up): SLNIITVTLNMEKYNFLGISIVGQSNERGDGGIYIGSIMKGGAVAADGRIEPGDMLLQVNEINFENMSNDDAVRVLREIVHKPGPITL

A further experiment addresses T8, HTRA3, P83110.
T8 sequence (P83110 354-453, limits assumed, looked up): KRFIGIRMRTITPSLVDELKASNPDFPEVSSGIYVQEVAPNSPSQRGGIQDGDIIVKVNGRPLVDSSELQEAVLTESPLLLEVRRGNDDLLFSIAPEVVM

A further experiment has as its target T9, TIAM2, Q8IVF5.
T9 sequence (Q8IVF5 885-986, limits assumed, looked up): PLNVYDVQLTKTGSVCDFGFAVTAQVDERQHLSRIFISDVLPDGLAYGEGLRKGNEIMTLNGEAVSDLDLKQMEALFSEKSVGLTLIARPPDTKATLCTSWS

For another experiment, the target named is T10, DFNB31_1, Q9P202.
T10 sequence (Q9P202 135-233, limits assumed, looked up): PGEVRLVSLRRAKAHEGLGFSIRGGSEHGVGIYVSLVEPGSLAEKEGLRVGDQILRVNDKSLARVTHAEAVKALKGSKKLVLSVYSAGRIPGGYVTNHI

Another experiment addresses T11, CARD11, Q9BXL7.
T11 sequence (Q9BXL7 662-765, limits assumed, looked up): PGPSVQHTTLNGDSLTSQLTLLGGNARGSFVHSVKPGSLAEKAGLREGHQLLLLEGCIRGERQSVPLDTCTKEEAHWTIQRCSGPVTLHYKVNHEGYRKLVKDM

The next experiment has as its target T12, DFNB31_2, Q9P202.
T12 sequence (Q9P202 274-371, limits assumed, looked up): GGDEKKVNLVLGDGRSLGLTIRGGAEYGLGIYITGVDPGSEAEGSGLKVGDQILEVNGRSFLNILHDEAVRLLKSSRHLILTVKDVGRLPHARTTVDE

A further experiment deals with T13, PTPN13_1, Q12923.
T13 sequence (Q12923 1088-1188, limits assumed, looked up): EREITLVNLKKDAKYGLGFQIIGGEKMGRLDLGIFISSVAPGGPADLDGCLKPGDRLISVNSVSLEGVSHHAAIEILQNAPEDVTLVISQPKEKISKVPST

A further experiment concerns the target T14, PDZD7_3, Q9H5P4.
T14 sequence (Q9H5P4 857-944, limits assumed, looked up): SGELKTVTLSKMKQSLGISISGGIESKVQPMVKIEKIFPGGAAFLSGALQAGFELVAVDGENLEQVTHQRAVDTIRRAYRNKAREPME

Chain of LDB3, O75112 (O75112 1-94): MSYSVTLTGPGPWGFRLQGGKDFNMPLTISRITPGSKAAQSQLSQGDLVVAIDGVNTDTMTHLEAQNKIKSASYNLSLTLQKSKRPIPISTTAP
Chain of DLG1_2, Q12959 (Q12959 314-412): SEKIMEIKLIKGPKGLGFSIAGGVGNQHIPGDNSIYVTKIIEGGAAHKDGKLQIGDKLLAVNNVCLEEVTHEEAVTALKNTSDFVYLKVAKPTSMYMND
Chain of GRIP2_7, Q9C0E4 (Q9C0E4 934-1023): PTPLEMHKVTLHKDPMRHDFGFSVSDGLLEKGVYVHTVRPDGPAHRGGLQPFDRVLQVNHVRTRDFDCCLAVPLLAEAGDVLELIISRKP
Chain of PARD3_3, Q8TEW0 (Q8TEW0 582-685): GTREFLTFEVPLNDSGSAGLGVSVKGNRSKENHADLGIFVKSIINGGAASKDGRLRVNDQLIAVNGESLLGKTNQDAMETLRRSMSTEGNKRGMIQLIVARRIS
Chain of FRMPD3, Q5JV73 (Q5JV73 12-100): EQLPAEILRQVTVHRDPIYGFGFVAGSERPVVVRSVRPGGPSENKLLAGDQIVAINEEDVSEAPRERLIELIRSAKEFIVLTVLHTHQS
Chain of PDLIM1, O00151 (O00151 1-87): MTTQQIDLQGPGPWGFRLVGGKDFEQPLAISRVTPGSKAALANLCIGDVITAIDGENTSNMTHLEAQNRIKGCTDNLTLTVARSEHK
Chain of GRASP, Q7Z6J2 (Q7Z6J2 96-193): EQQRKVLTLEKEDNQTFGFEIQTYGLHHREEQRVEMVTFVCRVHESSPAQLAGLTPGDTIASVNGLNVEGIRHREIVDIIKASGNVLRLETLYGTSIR
Chain of MAGI2_2, Q86UL8 (Q86UL8 410-522): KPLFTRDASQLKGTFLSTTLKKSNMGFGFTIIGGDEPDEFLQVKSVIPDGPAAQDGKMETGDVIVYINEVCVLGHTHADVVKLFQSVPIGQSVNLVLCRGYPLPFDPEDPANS
Chain of DLG4_2, P78352 (P78352 155-259): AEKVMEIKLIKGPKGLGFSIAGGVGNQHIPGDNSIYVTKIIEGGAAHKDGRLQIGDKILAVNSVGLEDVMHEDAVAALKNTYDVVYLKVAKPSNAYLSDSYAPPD
Chain of SCRIB_1, Q14160 (Q14160 718-814): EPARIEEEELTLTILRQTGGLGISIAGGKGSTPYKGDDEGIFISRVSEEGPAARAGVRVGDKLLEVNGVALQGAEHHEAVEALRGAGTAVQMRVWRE

B1: MARCHF9, Q86YJ5 (peptide)
chain: REVVMRVTTV
In general, pKd refers to the negative decadic logarithm of the Kd, by convention in mol/L. For B1, the pKd with DFNB31_3, Q9P202 is 4.31; with LIN7B, Q9HAP6, 4.16; with APBA1_1, Q02410, “below the threshold”; with SCRIB_1, Q14160 it was 4.72; with SNTA1, Q13424, 5.27; with DLG4_2, P78352, 5.27. Besides, the negative logarithm of the Kd (pKd) result in the experiment with PDLIM1, O00151 is “below the threshold”; with DLG1_2, Q12959, 5.44; in the experiment with LIN7A, O14910, 3.82; in the experiment with GRIP2_7, Q9C0E4, “below the threshold”; with GRASP, Q7Z6J2 it was 4.57; in the experiment with PARD3_3, Q8TEW0 it was “below the threshold”. Further, the pKd entry with GRIP1_4, Q9Y3R0 is “below the threshold”; with DVL3, Q92997 it was “below the threshold”; with HTRA3, P83110, 3.64; in the experiment with TIAM2, Q8IVF5, 3.85; with DFNB31_1, Q9P202, 3.98; with FRMPD3, Q5JV73, “below the threshold”. The pKd with MAGI2_2, Q86UL8 was 5.14; with CARD11, Q9BXL7, “below the threshold”; with LDB3, O75112, “below the threshold”; with DFNB31_2, Q9P202, 3.6; with PTPN13_1, Q12923, “below the threshold”; with PDZD7_3, Q9H5P4 it was 5.24.

B2: COMMD3, Q9UBI1 (peptide)
chain: SKSLERATQL
In the case of B2, the pKd was 4.25 in the experiment with DFNB31_3, Q9P202; 3.87 with LIN7B, Q9HAP6; “below the threshold” with APBA1_1, Q02410; 3.83 with SCRIB_1, Q14160; 4.06 in the experiment with SNTA1, Q13424; 3.97 in the experiment with DLG4_2, P78352. Besides, the pKd entry with PDLIM1, O00151 was “below the threshold”; in the experiment with DLG1_2, Q12959, 3.92; with LIN7A, O14910, “below the threshold”; in the experiment with GRIP2_7, Q9C0E4 it was 3.51; with GRASP, Q7Z6J2, 4; with PARD3_3, Q8TEW0, “below the threshold”. The pKd entry with GRIP1_4, Q9Y3R0 is “below the threshold”; with DVL3, Q92997 it was 3.58; with HTRA3, P83110 it was “below the threshold”; with TIAM2, Q8IVF5 it was 3.88; in the experiment with DFNB31_1, Q9P202 it was 3.74; in the experiment with FRMPD3, Q5JV73, “below the threshold”. For the same molecule, the pKd is 3.71 with MAGI2_2, Q86UL8; “below the threshold” in the experiment with CARD11, Q9BXL7; “below the threshold” with LDB3, O75112; “below the threshold” with DFNB31_2, Q9P202; “below the threshold” in the experiment with PTPN13_1, Q12923; 4.23 in the experiment with PDZD7_3, Q9H5P4.

B3: PPP1R3G, B7ZBB8 (peptide)
chain: LRYARPADAL
Turning to B3, the negative-log Kd (pKd) result in the experiment with DFNB31_3, Q9P202 is “below the threshold”; with LIN7B, Q9HAP6, “below the threshold”; with APBA1_1, Q02410 it was “below the threshold”; in the experiment with SCRIB_1, Q14160 it was “below the threshold”; with SNTA1, Q13424, “below the threshold”; in the experiment with DLG4_2, P78352 it was “below the threshold”. For the same molecule, the negative-log Kd (pKd) result with PDLIM1, O00151 is “below the threshold”; in the experiment with DLG1_2, Q12959 it was 3.53; with LIN7A, O14910, “below the threshold”; with GRIP2_7, Q9C0E4, “below the threshold”; with GRASP, Q7Z6J2 it was 3.47; in the experiment with PARD3_3, Q8TEW0, “below the threshold”. Further, the pKd result is “below the threshold” with GRIP1_4, Q9Y3R0; “below the threshold” in the experiment with DVL3, Q92997; “below the threshold” with HTRA3, P83110; “below the threshold” with TIAM2, Q8IVF5; “below the threshold” with DFNB31_1, Q9P202; “below the threshold” with FRMPD3, Q5JV73. Further, the negative-log Kd (pKd) entry is listed as “below the threshold” with MAGI2_2, Q86UL8; “below the threshold” in the experiment with CARD11, Q9BXL7; “below the threshold” with LDB3, O75112; “below the threshold” with DFNB31_2, Q9P202; “below the threshold” with PTPN13_1, Q12923; “below the threshold” in the experiment with PDZD7_3, Q9H5P4.

B4: XKR7, Q5GH72 (peptide)
chain: QELLEYETTV
With B4, the pKd entry with DFNB31_3, Q9P202 was “below the threshold”; with LIN7B, Q9HAP6, 4.5; with APBA1_1, Q02410, “below the threshold”; with SCRIB_1, Q14160, 4.41; with SNTA1, Q13424 it was 4.98; with DLG4_2, P78352, 4.91. Further, the negative logarithm of the Kd (pKd) entry is “below the threshold” with PDLIM1, O00151; 5.14 in the experiment with DLG1_2, Q12959; 4.38 with LIN7A, O14910; “below the threshold” in the experiment with GRIP2_7, Q9C0E4; 4.12 with GRASP, Q7Z6J2; 4.19 in the experiment with PARD3_3, Q8TEW0. Also, the pKd entry with GRIP1_4, Q9Y3R0 was “below the threshold”; in the experiment with DVL3, Q92997 it was “below the threshold”; with HTRA3, P83110, “below the threshold”; with TIAM2, Q8IVF5, “below the threshold”; with DFNB31_1, Q9P202, 4.2; with FRMPD3, Q5JV73 it was “below the threshold”. For the same molecule, the pKd in the experiment with MAGI2_2, Q86UL8 is 3.76; with CARD11, Q9BXL7 it was “below the threshold”; in the experiment with LDB3, O75112, “below the threshold”; with DFNB31_2, Q9P202 it was “below the threshold”; in the experiment with PTPN13_1, Q12923, “below the threshold”; with PDZD7_3, Q9H5P4 it was 4.85.
